Assay results as given in article PMC4631118 (Molecular microbiology, 2012).

T1: MBP-A2 (Qβ lysis protein A2 fused to E. coli maltose-binding protein) (bacteriophage Qβ, UniProt Q8LTE2 1-420)
T1 sequence (looked up): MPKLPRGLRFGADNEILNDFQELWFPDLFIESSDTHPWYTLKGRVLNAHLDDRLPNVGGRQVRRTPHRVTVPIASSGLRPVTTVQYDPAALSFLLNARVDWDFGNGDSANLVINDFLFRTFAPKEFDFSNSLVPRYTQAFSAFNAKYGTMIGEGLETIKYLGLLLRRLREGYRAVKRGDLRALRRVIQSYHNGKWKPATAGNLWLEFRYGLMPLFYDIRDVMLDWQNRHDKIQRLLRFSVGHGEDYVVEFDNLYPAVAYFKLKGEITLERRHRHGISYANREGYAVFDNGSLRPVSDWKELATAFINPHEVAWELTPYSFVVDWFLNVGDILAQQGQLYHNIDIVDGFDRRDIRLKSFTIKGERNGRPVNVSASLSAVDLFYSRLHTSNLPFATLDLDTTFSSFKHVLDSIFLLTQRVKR

T2: A2 cleaved from the MBP fusion protein with TEV protease (bacteriophage Qβ, UniProt Q8LTE2 1-420)
T2 sequence (looked up): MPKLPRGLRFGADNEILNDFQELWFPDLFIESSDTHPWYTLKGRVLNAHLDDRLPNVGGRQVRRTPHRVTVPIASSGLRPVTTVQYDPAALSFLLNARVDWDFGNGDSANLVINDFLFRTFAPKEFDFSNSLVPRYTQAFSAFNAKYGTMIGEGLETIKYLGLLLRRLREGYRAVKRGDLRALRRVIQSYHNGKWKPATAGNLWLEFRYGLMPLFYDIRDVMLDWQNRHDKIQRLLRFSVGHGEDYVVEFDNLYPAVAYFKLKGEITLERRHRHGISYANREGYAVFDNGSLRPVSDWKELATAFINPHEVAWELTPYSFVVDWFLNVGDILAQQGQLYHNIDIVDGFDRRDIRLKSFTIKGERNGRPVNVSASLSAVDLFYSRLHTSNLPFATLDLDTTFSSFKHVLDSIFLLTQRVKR


Legend:
[1] = target: T1, MBP-A2 (Qβ lysis protein A2 fused to E. …); test: pull-down
[2] = target: T2, A2 cleaved from the MBP fusion protein …; test: fusion cleavage assay

| Binder | binding result [1] | binding result [2] |
| --- | --- | --- |
| MurA (E. coli), purified, with C-terminal oligo-histidine tag (enzyme) MDKFRVQGPTKLQGEVTISGAKNAALPILFAALLAEEPVEIQNVPKLKDVDTSMKLLSQLGAKVERNGSVHIDARDVNVFCAPYDLVKTMRASIWALGPLVARFGQGQVSLPGGCTIGARPVDLHISGLEQLGATIKLEEGYVKASVDGRLKGAHIVMDKVSVGATVTIMCAATLAEGTTIIENAAREPEIVDTANFLITLGAKISGQGTDRIVIEGVERLGGGVYRVLPDRIETGTFLVAAAISRGKIICRNAQPDTLDAVLAKLRDAGADIEVGEDWISLDMHGKRPKAVNVRTAPHPAFPTDMQAQFTLLNLVAEGTGFITETVFENRFMHVPELSRMGAHAEIESNTVICHGVEKLSGAQVMATDLRASASLVLAGCIAEGTTVVDRIYHIDRGYERIEDKLRALGANIERVKGE | binds |  |
| MurA^D305A, purified (enzyme, E. coli) MDKFRVQGPTKLQGEVTISGAKNAALPILFAALLAEEPVEIQNVPKLKDVDTSMKLLSQLGAKVERNGSVHIDARDVNVFCAPYDLVKTMRASIWALGPLVARFGQGQVSLPGGCTIGARPVDLHISGLEQLGATIKLEEGYVKASVDGRLKGAHIVMDKVSVGATVTIMCAATLAEGTTIIENAAREPEIVDTANFLITLGAKISGQGTDRIVIEGVERLGGGVYRVLPDRIETGTFLVAAAISRGKIICRNAQPDTLDAVLAKLRDAGADIEVGEDWISLDMHGKRPKAVNVRTAPHPAFPTAMQAQFTLLNLVAEGTGFITETVFENRFMHVPELSRMGAHAEIESNTVICHGVEKLSGAQVMATDLRASASLVLAGCIAEGTTVVDRIYHIDRGYERIEDKLRALGANIERVKGE |  | binds |
